Measurements from patent US20180044434A1 (PUBLIC UNIVERSITY CORPORATION YOKOHAMA CITY UNIVERSITY, published 2018).

Assays:
[1] = molecular target: T1, Ala mutant of TA0096, SEQ ID NO: 41; assay: ELISA, coated peptide
T1 peptide: EENMDDQWMQDEMEAGY

[2] = molecular target: T2, Ala mutant of TA0096, SEQ ID NO: 33; assay: ELISA, coated peptide
T2 peptide: EENMDDAWMQDEMEIGY

[3] = molecular target: T3, Ala mutant having 3-amino acid substitution, SEQ ID NO: 48; assay: ELISA, coated peptide
T3 peptide: EENMDDQWMQDEAAAGY

[4] = molecular target: T4, TA0096 (peptide antigen corresponding to positions 340 to 356 of PAD4); assay: ELISA, coated peptide
T4 peptide: EENMDDQWMQDEMEIGY

[5] = molecular target: T5, Ala mutant of TA0096, SEQ ID NO: 35; assay: ELISA, coated peptide
T5 peptide: EENMDDQWAQDEMEIGY

[6] = molecular target: T6, Ala mutant having 3-amino acid substitution, SEQ ID NO: 47; assay: ELISA, coated peptide
T6 peptide: EENMDDQWMAAAMEIGY

[7] = molecular target: T7, Ala mutant of TA0096, SEQ ID NO: 28; assay: ELISA, coated peptide
T7 peptide: EANMDDQWMQDEMEIGY

[8] = molecular target: T8, Ala mutant of TA0096, SEQ ID NO: 39; assay: ELISA, coated peptide
T8 peptide: EENMDDQWMQDEAEIGY

[9] = molecular target: T9, Ala mutant of TA0096, SEQ ID NO: 42; assay: ELISA, coated peptide
T9 peptide: EENMDDQWMQDEMEIAY

[10] = molecular target: T10, Ala mutant of TA0096, SEQ ID NO: 27; assay: ELISA, coated peptide
T10 peptide: AENMDDQWMQDEMEIGY

[11] = molecular target: T11, Ala mutant having 3-amino acid substitution, SEQ ID NO: 49; assay: ELISA, coated peptide
T11 peptide: EENMDDQWMQDEMEIAA

[12] = molecular target: T12, Ala mutant of TA0096, SEQ ID NO: 31; assay: ELISA, coated peptide
T12 peptide: EENMADQWMQDEMEIGY

[13] = molecular target: T13, Ala mutant of TA0096, SEQ ID NO: 29; assay: ELISA, coated peptide
T13 peptide: EEAMDDQWMQDEMEIGY

[14] = molecular target: T14, Ala mutant of TA0096, SEQ ID NO: 36; assay: ELISA, coated peptide
T14 peptide: EENMDDQWMADEMEIGY

[15] = molecular target: T15, Ala mutant having 3-amino acid substitution, SEQ ID NO: 45; assay: ELISA, coated peptide
T15 peptide: EENAAAQWMQDEMEIGY

[16] = molecular target: T16, Ala mutant of TA0096, SEQ ID NO: 30; assay: ELISA, coated peptide
T16 peptide: EENADDQWMQDEMEIGY

[17] = molecular target: T15, Ala mutant having 3-amino acid …; assay: ELISA, 3-amino acid Ala mutants
Procedure: (§1) The epitope of each of A11 etc. was identified by alanine scan. Specifically, the following procedures (i) to (iii) were carried out. (i) Each amino acid residue of the antigen sequence (SEQ ID NO: 1) was replaced by another amino acid one by one, and 17 different Ala mutants (SEQ ID Nos: 27 to 43) were synthesized. (ii) The reactivity of each of the Ala mutants toward a test antibody was evaluated (ELISA).
Note that, as additional experiments, 6 different Ala mutants having 3-amino acid substitution (SEQ ID NOs: 44 to 49) were likewise examined in the experiments.

[18] = molecular target: T17, full-length recombinant human PAD4 (human, UniProt Q9UM07 1-663); assay: ELISA, coated human PAD4; antibody 0.0625 ug/mL
T17 construct: Full-length recombinant; also called peptidylarginine deiminase 4
T17 sequence (Q9UM07 whole entry): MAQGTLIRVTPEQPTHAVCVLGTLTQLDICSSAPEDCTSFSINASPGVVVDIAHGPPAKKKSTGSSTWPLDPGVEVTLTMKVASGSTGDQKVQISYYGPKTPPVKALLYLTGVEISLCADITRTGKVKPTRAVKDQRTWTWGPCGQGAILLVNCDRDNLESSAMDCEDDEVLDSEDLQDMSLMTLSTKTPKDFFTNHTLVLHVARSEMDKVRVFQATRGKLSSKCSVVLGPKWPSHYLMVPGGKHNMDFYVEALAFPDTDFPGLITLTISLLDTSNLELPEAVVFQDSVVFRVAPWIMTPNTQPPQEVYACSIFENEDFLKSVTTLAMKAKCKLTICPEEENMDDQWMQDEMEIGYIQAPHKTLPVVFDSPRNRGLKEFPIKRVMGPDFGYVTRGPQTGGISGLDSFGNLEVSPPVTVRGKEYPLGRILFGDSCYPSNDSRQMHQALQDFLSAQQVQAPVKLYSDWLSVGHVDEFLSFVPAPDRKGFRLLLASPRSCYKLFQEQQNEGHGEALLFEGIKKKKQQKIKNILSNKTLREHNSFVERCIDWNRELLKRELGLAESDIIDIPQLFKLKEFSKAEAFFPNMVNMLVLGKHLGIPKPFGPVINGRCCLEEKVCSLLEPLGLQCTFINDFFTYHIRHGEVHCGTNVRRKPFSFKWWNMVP

[19] = molecular target: T17, full-length recombinant human PAD4; assay: SPR (Biacore T200), antibody captured, human PAD4 analyte
Procedure: Biacore (GE Healthcare, Biacore T200) was carried out to evaluate the affinity of A11 etc., toward human PAD4. A Mouse Antibody Capture kit (GE Healthcare, BR-1008-38) was used for the affinity assay. Specifically, in accordance with the standard protocol provided by the manufacture, NHS/EDC was used and an amine coupling method, in which a free carboxyl group is fixed on a surface of a CM5 chip, was used to immobilize a rabbit anti-mouse polyclonal antibody on the surface of a CM5 chip. Next, A11 etc., were each captured by the rabbit anti-mouse polyclonal antibody. L207 was likewise captured. Then, human PAD4 at each concentration was subjected to Biacore T200 measurement to create a kinetic sensorgram.

[20] = molecular target: T17, full-length recombinant human PAD4; assay: ELISA, coated human PAD4; antibody 0.0002441 ug/mL
[21] = molecular target: T17, full-length recombinant human PAD4; assay: ELISA, coated human PAD4; antibody 0.0039063 ug/mL
[22] = molecular target: T18, Ala mutant of TA0096, SEQ ID NO: 34; assay: ELISA, alanine scan (position 347)
T18 peptide: EENMDDQAMQDEMEIGY
Procedure: as §1
The “96 pAb” designated in the table refers to antiserum as obtained by immunizing a chicken with TA0096 (SEQ ID NO: 1). The 96 pAb, which is an anti-PAD4 polyclonal antibody, can substantially keep the affinity toward PAD4 even if any of single amino acids of PAD4 is replaced.

[23] = molecular target: T19, full-length recombinant mouse PAD4 (mouse, UniProt Q9Z183 1-666); assay: ELISA, coated mouse PAD4; antibody 0.0039063 ug/mL
T19 construct: mature; Full-length recombinant
T19 sequence (Q9Z183 whole entry): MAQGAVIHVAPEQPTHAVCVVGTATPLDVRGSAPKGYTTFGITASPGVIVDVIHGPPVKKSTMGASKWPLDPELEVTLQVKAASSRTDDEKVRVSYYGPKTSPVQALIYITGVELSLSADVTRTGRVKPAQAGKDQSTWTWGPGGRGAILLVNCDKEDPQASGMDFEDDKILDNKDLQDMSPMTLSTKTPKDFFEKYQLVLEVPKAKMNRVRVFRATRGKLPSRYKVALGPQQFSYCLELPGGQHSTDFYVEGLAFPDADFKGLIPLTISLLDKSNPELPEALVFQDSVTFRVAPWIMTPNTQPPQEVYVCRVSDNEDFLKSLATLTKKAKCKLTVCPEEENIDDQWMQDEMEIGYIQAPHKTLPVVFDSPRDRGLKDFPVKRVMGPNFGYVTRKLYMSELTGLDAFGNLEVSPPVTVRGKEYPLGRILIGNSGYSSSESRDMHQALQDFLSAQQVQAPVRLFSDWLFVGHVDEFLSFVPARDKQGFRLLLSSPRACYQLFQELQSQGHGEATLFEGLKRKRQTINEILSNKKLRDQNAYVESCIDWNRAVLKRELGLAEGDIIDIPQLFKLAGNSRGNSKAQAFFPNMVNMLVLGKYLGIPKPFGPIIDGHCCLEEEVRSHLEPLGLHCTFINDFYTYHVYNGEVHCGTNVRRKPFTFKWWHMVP

[24] = molecular target: T19, full-length recombinant mouse PAD4; assay: ELISA, coated mouse PAD4; antibody 6.104E-05 ug/mL
[25] = molecular target: full-length recombinant human or mouse PAD4 (species used for Table 7 and FIG. 7 not stated); assay: cell-based or functional assay
[26] = molecular target: T17, full-length recombinant human PAD4; assay: ELISA, coated human PAD4; antibody 0.0009766 ug/mL

B1: H7 (antibody, V domains shown)
VH: AVTLDESGGGLQTPGGALSLVCKASGFTFSTYAMGWMRQAPGKGLEYVAAIRNDGSWTGYGAAVKGRATILRDNGQSTVRLQLSNLRAEDTGTYYCAKYTGSSGGSIGAWGHGTEVIVS
VL: ASTQPSSVSANPGGTVEITCSGGSGRYYYGWYQQKSPGSAPVTVIYSSTHRPSNIPSRFSGSKSGSTATLTITGVQAEDEAVYFCGTADSSSYVFGAGTTLTVL
notes: Chicken variable regions in a mouse chimeric antibody (IgG1); also called anti-PAD4 antibody H7
OD 490/630 nm [1]: 1.83
OD 490/630 nm [2]: 1.87
OD 490/630 nm [3]: 1.87
OD 490/630 nm [4]: 1.82
OD 490/630 nm [5]: 0.065
OD 490/630 nm [6]: 1.67
OD 490/630 nm [7]: 1.95
OD 490/630 nm [8]: 1.81
OD 490/630 nm [9]: 1.85
OD 490/630 nm [10]: 1.9
OD 490/630 nm [11]: 1.86
OD 490/630 nm [12]: 0.462
OD 490/630 nm [13]: 1.9
OD 490/630 nm [14]: 1.87
OD 490/630 nm [15]: 0.016
OD 490/630 nm [16]: 1.95
binding result [17]: no binding
OD 490/630 nm [18]: 2.12
Kd [19]: 7.56 nM
koff [19]: 0.000791 s⁻¹
kon [19]: 105000 M⁻¹ s⁻¹
OD 490/630 nm [20]: 0.217
OD 490/630 nm [21]: 1.35
binding result [22]: no binding
OD 490/630 nm [23]: 1.41
OD 490/630 nm [24]: 0.103
Relative citrullination activity [25]: 35 relative to PBS = 100
OD 490/630 nm [26]: 0.537
